First the molecules themselves.
B1: primer-template +1, X=T (dsDNA)
DNA 1: TTTCTGGTTCCAGCTGGACCATTCGCCTATAGGACCTATT
DNA 2: AATAGGTCCTATAGGCGAATGGTCCAGCTGG
B2: primer-template -1, X=U (dsDNA)
DNA 1: TTTCTGGTUCCAGCTGGACCATTCGCCTATAGGACCTATT
DNA 2: AATAGGTCCTATAGGCGAATGGTCCAGCTGGAA
modifications: deoxyuridine at template position 9
B3: primer-template +1, X=U (dsDNA)
DNA 1: TTTCTGGTUCCAGCTGGACCATTCGCCTATAGGACCTATT
DNA 2: AATAGGTCCTATAGGCGAATGGTCCAGCTGG
modifications: deoxyuridine at template position 9
B4: primer-template -1, X=T (dsDNA)
DNA 1: TTTCTGGTTCCAGCTGGACCATTCGCCTATAGGACCTATT
DNA 2: AATAGGTCCTATAGGCGAATGGTCCAGCTGGAA

Pfu-Pol D (family-D DNA polymerase, DP1 small + DP2 large subunits), sequence (P81409 whole entry, chain 1 of 2): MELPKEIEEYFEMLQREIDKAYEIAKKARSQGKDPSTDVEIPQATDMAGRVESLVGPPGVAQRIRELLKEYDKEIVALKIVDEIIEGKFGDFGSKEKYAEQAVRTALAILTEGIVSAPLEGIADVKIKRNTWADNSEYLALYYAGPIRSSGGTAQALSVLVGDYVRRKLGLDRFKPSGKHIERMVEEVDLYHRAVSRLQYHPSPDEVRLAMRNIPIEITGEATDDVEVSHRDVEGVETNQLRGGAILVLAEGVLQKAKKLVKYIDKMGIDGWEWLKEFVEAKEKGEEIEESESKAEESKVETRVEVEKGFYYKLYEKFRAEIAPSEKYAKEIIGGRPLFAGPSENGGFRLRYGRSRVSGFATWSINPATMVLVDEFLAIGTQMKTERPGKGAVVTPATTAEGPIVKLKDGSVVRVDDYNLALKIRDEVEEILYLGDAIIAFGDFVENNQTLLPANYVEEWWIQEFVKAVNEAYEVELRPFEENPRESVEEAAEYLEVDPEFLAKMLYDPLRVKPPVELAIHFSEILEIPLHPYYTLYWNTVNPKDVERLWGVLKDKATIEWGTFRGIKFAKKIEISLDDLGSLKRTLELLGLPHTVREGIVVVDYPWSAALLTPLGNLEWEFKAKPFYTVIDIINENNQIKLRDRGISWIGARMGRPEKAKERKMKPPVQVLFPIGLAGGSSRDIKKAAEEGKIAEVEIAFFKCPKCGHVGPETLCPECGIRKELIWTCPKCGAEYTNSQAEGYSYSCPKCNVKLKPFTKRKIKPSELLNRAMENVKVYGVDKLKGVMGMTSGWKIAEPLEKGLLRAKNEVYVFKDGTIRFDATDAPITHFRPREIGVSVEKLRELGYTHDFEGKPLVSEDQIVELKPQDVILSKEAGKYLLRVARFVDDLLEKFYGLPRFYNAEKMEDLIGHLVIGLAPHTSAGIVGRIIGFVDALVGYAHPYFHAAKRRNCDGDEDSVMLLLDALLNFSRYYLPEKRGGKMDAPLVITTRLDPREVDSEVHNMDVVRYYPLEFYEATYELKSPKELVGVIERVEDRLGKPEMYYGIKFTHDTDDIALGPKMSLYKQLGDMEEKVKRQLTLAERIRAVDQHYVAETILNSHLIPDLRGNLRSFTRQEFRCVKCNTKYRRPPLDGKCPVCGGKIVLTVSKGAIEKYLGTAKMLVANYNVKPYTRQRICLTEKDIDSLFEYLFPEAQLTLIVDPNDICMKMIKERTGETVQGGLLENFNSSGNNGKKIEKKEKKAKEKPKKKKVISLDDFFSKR
Pfu-Pol D (family-D DNA polymerase, DP1 small + DP2 large subunits), sequence (P81412 whole entry, chain 2 of 2): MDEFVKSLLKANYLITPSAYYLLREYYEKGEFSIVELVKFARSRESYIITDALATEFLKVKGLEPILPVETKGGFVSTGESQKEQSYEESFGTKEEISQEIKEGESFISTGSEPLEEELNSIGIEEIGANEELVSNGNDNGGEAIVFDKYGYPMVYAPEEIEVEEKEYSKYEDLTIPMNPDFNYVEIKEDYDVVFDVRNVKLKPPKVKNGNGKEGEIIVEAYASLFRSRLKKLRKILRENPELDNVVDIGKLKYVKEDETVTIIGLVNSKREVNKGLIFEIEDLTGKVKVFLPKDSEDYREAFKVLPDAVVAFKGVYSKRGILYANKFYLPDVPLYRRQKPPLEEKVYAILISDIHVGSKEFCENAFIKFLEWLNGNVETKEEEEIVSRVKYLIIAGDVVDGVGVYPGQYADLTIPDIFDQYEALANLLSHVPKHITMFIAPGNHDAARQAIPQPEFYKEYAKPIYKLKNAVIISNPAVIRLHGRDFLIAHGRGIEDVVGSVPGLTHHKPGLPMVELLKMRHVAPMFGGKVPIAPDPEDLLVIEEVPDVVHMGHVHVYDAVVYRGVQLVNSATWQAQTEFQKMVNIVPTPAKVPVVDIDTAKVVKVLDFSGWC

The first series addresses T1, Pab-Pol D (Pyrococcus abyssi, UniProt Q9V2F4).
T1 sequence (Q9V2F4 1-954): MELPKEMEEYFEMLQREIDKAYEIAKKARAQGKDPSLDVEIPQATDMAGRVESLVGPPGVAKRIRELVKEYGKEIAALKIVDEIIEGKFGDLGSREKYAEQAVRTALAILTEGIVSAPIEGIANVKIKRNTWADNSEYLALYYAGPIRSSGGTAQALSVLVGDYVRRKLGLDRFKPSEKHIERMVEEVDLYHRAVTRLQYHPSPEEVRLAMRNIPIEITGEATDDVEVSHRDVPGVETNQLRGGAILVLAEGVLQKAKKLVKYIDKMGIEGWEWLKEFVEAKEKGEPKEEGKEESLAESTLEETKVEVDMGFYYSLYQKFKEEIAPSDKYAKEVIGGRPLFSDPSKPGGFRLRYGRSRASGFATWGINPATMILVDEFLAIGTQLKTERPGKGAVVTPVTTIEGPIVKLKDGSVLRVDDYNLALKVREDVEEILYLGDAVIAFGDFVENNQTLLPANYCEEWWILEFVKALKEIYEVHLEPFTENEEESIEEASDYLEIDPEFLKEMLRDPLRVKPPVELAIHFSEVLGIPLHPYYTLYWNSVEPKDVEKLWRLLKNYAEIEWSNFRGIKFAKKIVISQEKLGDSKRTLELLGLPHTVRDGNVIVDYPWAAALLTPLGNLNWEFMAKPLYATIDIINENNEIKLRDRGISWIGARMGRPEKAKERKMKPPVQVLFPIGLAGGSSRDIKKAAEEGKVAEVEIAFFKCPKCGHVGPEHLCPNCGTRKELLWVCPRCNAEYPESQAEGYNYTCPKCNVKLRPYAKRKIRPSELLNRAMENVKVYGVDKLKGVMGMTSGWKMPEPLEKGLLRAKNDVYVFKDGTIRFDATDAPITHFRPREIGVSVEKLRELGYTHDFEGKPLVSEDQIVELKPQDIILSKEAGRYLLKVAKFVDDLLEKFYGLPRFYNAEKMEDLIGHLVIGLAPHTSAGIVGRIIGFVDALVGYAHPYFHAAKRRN
T1 sequence (Q9V2F4 1140-1455): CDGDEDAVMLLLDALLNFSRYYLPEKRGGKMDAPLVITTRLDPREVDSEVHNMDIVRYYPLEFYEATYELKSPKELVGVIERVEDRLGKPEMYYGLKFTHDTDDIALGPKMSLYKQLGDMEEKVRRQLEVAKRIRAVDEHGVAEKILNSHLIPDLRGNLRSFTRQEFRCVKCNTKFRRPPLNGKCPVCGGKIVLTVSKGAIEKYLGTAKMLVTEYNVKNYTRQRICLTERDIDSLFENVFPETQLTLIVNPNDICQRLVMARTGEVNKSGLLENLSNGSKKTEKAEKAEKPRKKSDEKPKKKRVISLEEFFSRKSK
T1 sequence (Q9V2F3 1-619 partner): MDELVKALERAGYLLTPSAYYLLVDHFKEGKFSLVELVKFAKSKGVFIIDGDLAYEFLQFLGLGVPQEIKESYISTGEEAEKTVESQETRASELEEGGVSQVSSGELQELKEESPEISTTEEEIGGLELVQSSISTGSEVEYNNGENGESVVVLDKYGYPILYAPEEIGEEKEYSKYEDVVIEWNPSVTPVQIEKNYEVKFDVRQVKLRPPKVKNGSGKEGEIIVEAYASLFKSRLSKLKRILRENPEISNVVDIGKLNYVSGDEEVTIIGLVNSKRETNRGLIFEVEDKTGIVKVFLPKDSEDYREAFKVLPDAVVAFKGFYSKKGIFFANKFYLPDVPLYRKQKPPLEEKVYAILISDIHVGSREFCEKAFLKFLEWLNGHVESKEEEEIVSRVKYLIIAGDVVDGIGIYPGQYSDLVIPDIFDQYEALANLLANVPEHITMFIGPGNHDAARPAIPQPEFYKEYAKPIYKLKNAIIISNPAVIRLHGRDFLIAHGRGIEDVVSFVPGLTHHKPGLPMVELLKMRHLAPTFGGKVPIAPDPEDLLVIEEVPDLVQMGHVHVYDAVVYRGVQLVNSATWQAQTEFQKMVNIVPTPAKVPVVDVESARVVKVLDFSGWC
The experiment in a line: primer extension with a single dNTP, denaturing gel. It counts as biochemical. Particulars: exo+ enzyme; template U at +1; otherwise same.
In the case of `Nc1ncnc2c1ncn2[C@H]1C[C@H](O)[C@@H](COP(=O)(O)OP(=O)(O)OP(=O)(O)O)O1` [dATP], the “primer extension with a single dNTP, denaturing gel” value was “Pab-Pol D exo^+ only incorporated adenine opposite uracil”.

Another series has as its target Pfu-Pol D (family-D DNA polymerase, DP1 small + DP2 large subunits) (Pyrococcus furiosus, UniProt P81409;P81412 1-1263;1-613). The series is described as follows: fluorescence anisotropy.
Conditions: not given
In general terms: Polarisation of emitted light reports the rotation of a fluorescent probe.
Usually Kd stands for the equilibrium constant for the complex coming apart. Take TTTCTGGTTCCAGCTGGACCATTCGCCTATAGGACCTATT (ssDNA) [single strand, X=T]: the Kd was 6 ± 1.6 nM.

Consider B1, for which the Kd amounted to 9.1 ± 1.5 nM.

Turning to TTTCTGGTUCCAGCTGGACCATTCGCCTATAGGACCTATT (ssDNA, deoxyuridine at position 9) [single strand, X=U], the Kd came to 3.4 ± 0.3 nM.

Take B2: the Kd came out at 5.2 ± 1.3 nM.

As for B3, the Kd came out at 5.8 ± 0.4 nM.

Regarding B4, the Kd was 9.3 ± 0.6 nM.

These data come from PMC3627576 (Nucleic Acids Research, 2013).
